# Source: the RNAGym collection of RNA variant scans (doi:10.1093/molbev/msab373)
# B1: Azoarcus group I ribozyme (parent)
# chain: GUGCCUUGCGCCGGGAAACCACGCAAGGGAUGGUGUCAAAUUCGGCGAAACCUAAGCGCCCGCCCGGGCGUAUGGCAACGCCGAGCCAAGCUUCGGCGCCUGCGCCGAUGAAGGUGUAGAGACUAGACGGCACCCACCUAAGGCAAACGCUAUGGUGAAGGCAUAGUCCAGGGAGUGGCGAAAGUCACACAAACCGG
# Variants of: B1
# Assay: reverse-splicing fitness (ratio to wild type); higher = more active; in vitro selection; Mg2+ level not given
# Method in brief: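 An in vitro group I ribozyme library with randomized positions was T7-transcribed and gel-purified. In triplicate, 10 pmol RNA in EPPS pH 7.5 was reacted with 50 pmoles of a 30-nt RNA substrate for 1 h at 37 °C across several added MgCl2 levels (1–48 mM), then stopped with EDTA. Products were reverse transcribed from a substrate-complementary primer, PCR-amplified and sequenced (HiSeq 4000). Fitness is a variant's read proportion after selection over that before, normalised to wild type.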
row,Variant,reverse-splicing fitness
1,GUGCCUUGCGCCGGGAAACCACGCAAGGGAUGGUGUCAAAUUCGGCGAAACCUAAGCGCCCGCCCGGGCGUAUGGCAACGCCGAGCCAAGCUUCGGCGCCUGCGCCGAUGGAGGUGUAGAGACUAGACGGCACCCACCUAAGGCGAACGCUAUGGUGAAGGCAUAGUCCAGGGAGCGGCGAAAGUCACACAAACCGG [A111G A145G U176C],0.779
2,GUGCCUUGCGCCGGGAAACCACGCAAGGGAUGGUGUCAAAUUCGGCGAAACCUAAGCGCCCGCCCGGGCGUAUGGCAACGCCGAGCCAAGCUUCGGCGCCUGCGCCGAUGGAGGUGUAGAGACUAGACGGCACCCACCUAAGGCGAACGCUAUGGUGAAGGCAUAGUCCAGGGAGAGGCGAAAGUCACACAAACCGG [A111G A145G U176A],0.751
3,GUGCCUUGCGCCGGGAAACCACGCAAGGGAUGGUGUCAAAUUCGGCGAAACCUAAGCGCCCGCCCGGGCGUAUGGCAACGCCGAGCCAAGCUUCGGCGCCUGCGCCGAUGGAGGUGUAGAGACUAGACGGCACCCACCUAAGGCGAACGCUAUGGUGAAGGCAUAGUCCAGGGAGGGGCGAAAGUCACACAAACCGG [A111G A145G U176G],0.333
4,GUGCCUUGCGCCGGGAAACCACGCAAGGGAUGGUGUCAAAUUCGGCGAAACCUAAGCGCCCGCCCGGGCGUAUGGCAACGCCGAGCCAAGCUUCGGCGCCUGCGCCGAUGGAGGUGUAGAGACUAGACGGCACCCACCUAAGGCGAACGUUAUGGUGAAGGCAUAGUCCAGGGAGCGGCGAAAGUCACACAAACCGG [A111G A145G C150U U176C],0.713
5,GUGCCUUGCGCCGGGAAACCACGCAAGGGAUGGUGUCAAAUUCGGCGAAACCUAAGCGCCCGCCCGGGCGUAUGGCAACGCCGAGCCAAGCUUCGGCGCCUGCGCCGAUGGAGGUGUAGAGACUAGACGGCACCCACCUAAGGCGAACGUUAUGGUGAAGGCAUAGUCCAGGGAGGGGCGAAAGUCACACAAACCGG [A111G A145G C150U U176G],0.25
6,GUGCCUUGCGCCGGGAAACCACGCAAGGGAUGGUGUCAAAUUCGGCGAAACCUAAGCGCCCGCCCGGGCGUAUGGCAACGCCGAGCCAAGCUUCGGCGCCUGCGCCGAUGGAGGUGUAGAGACUAGACGGCACCCACCUAAGGCGAACGCUAUGGUGAAGGCAUAGUCUAGGGAGUGGCGAAAGUCACACAAACCGG [A111G A145G C169U],0.19
7,GUGCCUUGCGCCGGGAAACCACGCAAGGGAUGGUGUCAAAUUCGGCGAAACCUAAGCGCCCGCCCGGGCGUAUGGCAACGCCGAGCCAAGCUUCGGCGCCUGCGCCGAUGGAGGUGUAGAGACUAGACGGCACCCACCUAAGGCGAACGCUAUGGUGAAGGCAUAGUCAAGGGAGUGGCGAAAGUCACACAAACCGG [A111G A145G C169A],0.053
8,GUGCCUUGCGCCGGGAAACCACGCAAGGGAUGGUGUCAAAUUCGGCGAAACCUAAGCGCCCGCCCGGGCGUAUGGCAACGCCGAGCCAAGCUUCGGCGCCUGCGCCGAUGGAGGUGUAGAGACUAGACGGCACCCACCUAAGGCGAACGCUAUGGUGAAGGCAUAGUCGAGGGAGUGGCGAAAGUCACACAAACCGG [A111G A145G C169G],0.118
9,GUGCCUUGCGCCGGGAAACCACGCAAGGGAUGGUGUCAAAUUCGGCGAAACCUAAGCGCCCGCCCGGGCGUAUGGCAACGCCGAGCCAAGCUUCGGCGCCUGCGCCGAUGGAGGUGUAGAGACUAGACGGCACCCACCUAAGGCGAACGCUAUGGUGAAGGCAUAGUCGAGGGAGGGGCGAAAGUCACACAAACCGG [A111G A145G C169G U176G],0.00638
10,GUGCCUUGCGCCGGGAAACCACGCAAGGGAUGGUGUCAAAUUCGGCGAAACCUAAGCGCCCGCCCGGGCGUAUGGCAACGCCGAGCCAAGCUUCGGCGCCUGCGCCGAUGGAGGUGUAGAGACUAGACGGCACCCACCUAAGGCGAACGCUAUGGUGAAGGCAUAGUCGAGGGAGAGGCGAAAGUCACACAAACCGG [A111G A145G C169G U176A],0.0326
11,GUGCCUUGCGCCGGGAAACCACGCAAGGGAUGGUGUCAAAUUCGGCGAAACCUAAGCGCCCGCCCGGGCGUAUGGCAACGCCGAGCCAAGCUUCGGCGCCUGCGCCGAUGGAGGUGUAGAGACUAGACGGCACCCACCUAAGGCGAACGCUAUGGUGAAGGCAUAGUCGAGGGAGCGGCGAAAGUCACACAAACCGG [A111G A145G C169G U176C],0.0596
12,GUGCCUUGCGCCGGGAAACCACGCAAGGGAUGGUGUCAAAUUCGGCGAAACCUAAGCGCCCGCCCGGGCGUAUGGCAACGCCGAGCCAAGCUUCGGCGCCUGCGCCGAUGGAGGUGUAGAGACUAGACGGCACCCACCUAAGGCUAACGAUAUGGUGAAGGCAUAGUCGAGGGAGUGGCGAAAGUCACACAAACCGG [A111G A145U C150A C169G],0.016
13,GUGCCUUGCGCCGGGAAACCACGCAAGGGAUGGUGUCAAAUUCGGCGAAACCUAAGCGCCCGCCCGGGCGUAUGGCAACGCCGAGCCAAGCUUCGGCGCCUGCGCCGAUGGAGGUGUAGAGACUAGACGGCACCCACCUAAGGCUAACGAUAUGGUGAAGGCAUAGUCAAGGGAGUGGCGAAAGUCACACAAACCGG [A111G A145U C150A C169A],0.0105
14,GUGCCUUGCGCCGGGAAACCACGCAAGGGAUGGUGUCAAAUUCGGCGAAACCUAAGCGCCCGCCCGGGCGUAUGGCAACGCCGAGCCAAGCUUCGGCGCCUGCGCCGAUGGAGGUGUAGAGACUAGACGGCACCCACCUAAGGCUAACGAUAUGGUGAAGGCAUAGUCUAGGGAGUGGCGAAAGUCACACAAACCGG [A111G A145U C150A C169U],0.0232
15,GUGCCUUGCGCCGGGAAACCACGCAAGGGAUGGUGUCAAAUUCGGCGAAACCUAAGCGCCCGCCCGGGCGUAUGGCAACGCCGAGCCAAGCUUCGGCGCCUGCGCCGAUGGAGGUGUAGAGACUAGACGGCACCCACCUAAGGCGAACGCUAUGGUGAAGGCAUAGUCAAGGGAGAGGCGAAAGUCACACAAACCGG [A111G A145G C169A U176A],0.0226
16,GUGCCUUGCGCCGGGAAACCACGCAAGGGAUGGUGUCAAAUUCGGCGAAACCUAAGCGCCCGCCCGGGCGUAUGGCAACGCCGAGCCAAGCUUCGGCGCCUGCGCCGAUGGAGGUGUAGAGACUAGACGGCACCCACCUAAGGCGAACGCUAUGGUGAAGGCAUAGUCAAGGGAGGGGCGAAAGUCACACAAACCGG [A111G A145G C169A U176G],0.00526
17,GUGCCUUGCGCCGGGAAACCACGCAAGGGAUGGUGUCAAAUUCGGCGAAACCUAAGCGCCCGCCCGGGCGUAUGGCAACGCCGAGCCAAGCUUCGGCGCCUGCGCCGAUGGAGGUGUAGAGACUAGACGGCACCCACCUAAGGCGAACGCUAUGGUGAAGGCAUAGUCAAGGGAGCGGCGAAAGUCACACAAACCGG [A111G A145G C169A U176C],0.036
18,GUGCCUUGCGCCGGGAAACCACGCAAGGGAUGGUGUCAAAUUCGGCGAAACCUAAGCGCCCGCCCGGGCGUAUGGCAACGCCGAGCCAAGCUUCGGCGCCUGCGCCGAUGGAGGUGUAGAGACUAGACGGCACCCACCUAAGGCUAACGAUAUGGUGAAGGCAUAGUCUAGGGAGCGGCGAAAGUCACACAAACCGG [A111G A145U C150A C169U U176C],0.0165
19,GUGCCUUGCGCCGGGAAACCACGCAAGGGAUGGUGUCAAAUUCGGCGAAACCUAAGCGCCCGCCCGGGCGUAUGGCAACGCCGAGCCAAGCUUCGGCGCCUGCGCCGAUGGAGGUGUAGAGACUAGACGGCACCCACCUAAGGCUAACGAUAUGGUGAAGGCAUAGUCUAGGGAGAGGCGAAAGUCACACAAACCGG [A111G A145U C150A C169U U176A],0.0162
20,GUGCCUUGCGCCGGGAAACCACGCAAGGGAUGGUGUCAAAUUCGGCGAAACCUAAGCGCCCGCCCGGGCGUAUGGCAACGCCGAGCCAAGCUUCGGCGCCUGCGCCGAUGGAGGUGUAGAGACUAGACGGCACCCACCUAAGGCUAACGAUAUGGUGAAGGCAUAGUCCAGGGAGUGGCGAAAGUCACACAAACCGG [A111G A145U C150A],0.365
21,GUGCCUUGCGCCGGGAAACCACGCAAGGGAUGGUGUCAAAUUCGGCGAAACCUAAGCGCCCGCCCGGGCGUAUGGCAACGCCGAGCCAAGCUUCGGCGCCUGCGCCGAUGGAGGUGUAGAGACUAGACGGCACCCACCUAAGGCGAACGCUAUGGUGAAGGCAUAGUCUAGGGAGAGGCGAAAGUCACACAAACCGG [A111G A145G C169U U176A],0.0478
22,GUGCCUUGCGCCGGGAAACCACGCAAGGGAUGGUGUCAAAUUCGGCGAAACCUAAGCGCCCGCCCGGGCGUAUGGCAACGCCGAGCCAAGCUUCGGCGCCUGCGCCGAUGGAGGUGUAGAGACUAGACGGCACCCACCUAAGGCGAACGCUAUGGUGAAGGCAUAGUCUAGGGAGCGGCGAAAGUCACACAAACCGG [A111G A145G C169U U176C],0.0655
23,GUGCCUUGCGCCGGGAAACCACGCAAGGGAUGGUGUCAAAUUCGGCGAAACCUAAGCGCCCGCCCGGGCGUAUGGCAACGCCGAGCCAAGCUUCGGCGCCUGCGCCGAUGGAGGUGUAGAGACUAGACGGCACCCACCUAAGGCGAACGCUAUGGUGAAGGCAUAGUCUAGGGAGGGGCGAAAGUCACACAAACCGG [A111G A145G C169U U176G],0.00661
24,GUGCCUUGCGCCGGGAAACCACGCAAGGGAUGGUGUCAAAUUCGGCGAAACCUAAGCGCCCGCCCGGGCGUAUGGCAACGCCGAGCCAAGCUUCGGCGCCUGCGCCGAUGGAGGUGUAGAGACUAGACGGCACCCACCUAAGGCUAACGCUAUGGUGAAGGCAUAGUCCAGGGAGUGGCGAAAGUCACACAAACCGG [A111G A145U],0.957
25,GUGCCUUGCGCCGGGAAACCACGCAAGGGAUGGUGUCAAAUUCGGCGAAACCUAAGCGCCCGCCCGGGCGUAUGGCAACGCCGAGCCAAGCUUCGGCGCCUGCGCCGAUGGAGGUGUAGAGACUAGACGGCACCCACCUAAGGCUAACGAUAUGGUGAAGGCAUAGUCAAGGGAGAGGCGAAAGUCACACAAACCGG [A111G A145U C150A C169A U176A],0.0121
26,GUGCCUUGCGCCGGGAAACCACGCAAGGGAUGGUGUCAAAUUCGGCGAAACCUAAGCGCCCGCCCGGGCGUAUGGCAACGCCGAGCCAAGCUUCGGCGCCUGCGCCGAUGGAGGUGUAGAGACUAGACGGCACCCACCUAAGGCUAACGAUAUGGUGAAGGCAUAGUCAAGGGAGGGGCGAAAGUCACACAAACCGG [A111G A145U C150A C169A U176G],0.00565
27,GUGCCUUGCGCCGGGAAACCACGCAAGGGAUGGUGUCAAAUUCGGCGAAACCUAAGCGCCCGCCCGGGCGUAUGGCAACGCCGAGCCAAGCUUCGGCGCCUGCGCCGAUGGAGGUGUAGAGACUAGACGGCACCCACCUAAGGCUAACGAUAUGGUGAAGGCAUAGUCAAGGGAGCGGCGAAAGUCACACAAACCGG [A111G A145U C150A C169A U176C],0.00843
28,GUGCCUUGCGCCGGGAAACCACGCAAGGGAUGGUGUCAAAUUCGGCGAAACCUAAGCGCCCGCCCGGGCGUAUGGCAACGCCGAGCCAAGCUUCGGCGCCUGCGCCGAUGGAGGUGUAGAGACUAGACGGCACCCACCUAAGGCUAACGAUAUGGUGAAGGCAUAGUCGAGGGAGCGGCGAAAGUCACACAAACCGG [A111G A145U C150A C169G U176C],0.0131
29,GUGCCUUGCGCCGGGAAACCACGCAAGGGAUGGUGUCAAAUUCGGCGAAACCUAAGCGCCCGCCCGGGCGUAUGGCAACGCCGAGCCAAGCUUCGGCGCCUGCGCCGAUGGAGGUGUAGAGACUAGACGGCACCCACCUAAGGCUAACGAUAUGGUGAAGGCAUAGUCGAGGGAGGGGCGAAAGUCACACAAACCGG [A111G A145U C150A C169G U176G],0.00512
30,GUGCCUUGCGCCGGGAAACCACGCAAGGGAUGGUGUCAAAUUCGGCGAAACCUAAGCGCCCGCCCGGGCGUAUGGCAACGCCGAGCCAAGCUUCGGCGCCUGCGCCGAUGGAGGUGUAGAGACUAGACGGCACCCACCUAAGGCUAACGAUAUGGUGAAGGCAUAGUCGAGGGAGAGGCGAAAGUCACACAAACCGG [A111G A145U C150A C169G U176A],0.014
